These results are taken from EP0959899A1.

Experiment [1] concerns the target human CD2 (CD2 antigen, entire CD2 molecule) (human) (UniProt P06729). In words: flow cytometry, two colour staining of human PBMC (data not shown). On the technique in general: A flow cytometer gives signals particle by particle.
For experiment [2] the target is unchanged. In words: flow cytometry, two colour staining of PBMC with biotinylated LO-CD2a and Leu-5bPE (Figure 1).
For experiment [3] the target is unchanged. Put plainly: flow cytometry on PBMC cultured with 500 ng/ml LO-CD2a, bound antibody detected with MARK-3-FITC (Figure 5a).

Sequence of UniProt P06729 (P06729 25-351): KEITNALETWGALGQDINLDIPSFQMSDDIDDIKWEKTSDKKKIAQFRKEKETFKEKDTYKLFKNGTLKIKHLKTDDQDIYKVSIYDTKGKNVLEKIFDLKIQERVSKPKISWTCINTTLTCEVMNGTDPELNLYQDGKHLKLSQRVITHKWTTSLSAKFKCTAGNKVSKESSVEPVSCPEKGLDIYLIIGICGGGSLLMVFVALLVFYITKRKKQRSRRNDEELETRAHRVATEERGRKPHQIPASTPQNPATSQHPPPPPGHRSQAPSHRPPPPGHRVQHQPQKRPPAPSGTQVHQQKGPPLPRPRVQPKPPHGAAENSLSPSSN

As for “LO-CD2a rat (IgG2b-Kappa) anti-CD2 monoclonal antibody, produced by the cell line ATCC HB 11423”, the percent of the population marked by T11 that is recognized in experiment [1] turned out to be 90%. In experiment [2], this substance showed a % gated cells in the upper right (double positive) quadrant of 66 % gated and a % total cells in the upper right (double positive) quadrant of 17 % total. In experiment [3], the percent of cells labelled by MARK-3 (bound LO-CD2a) at day 6 of culture was determined as 50%.

For “Leu-5b, mouse anti-human-CD2 monoclonal antibody (Becton Dickinson)”, in experiment [2], the % gated cells in the upper right (double positive) quadrant was found to be 66 % gated and the % total cells in the upper right (double positive) quadrant is 17 % total.
